Experimental data reported in US12227551B2, “Membrane bound IL12 compositions and methods for tunable regulation” (Obsidian Therapeutics, Inc., priority 2018, dated 2025).

Columns and labels:
[1] = Plasma IL12 and IFNgamma levels (Example 10; Table 36); type: in vivo, NSG mice; conditions: day 14 post T cell transfer; 1 million CAR+ T cells
Description: (§1) To test in vivo anti-tumor activity, experiments were performed in NSG mice. Nalm6 cells were transfected with Redifect Red-Fluc (Perkin Elmer) under selection using Puromycin for ˜2 months to generate a line that stably expresses the luciferase reporter; thereafter named Nalm6-Luc. Ten days before tumor implantation, Nalm6-Luc cells were thawed and cultured in puromycin-containing media. On day 0, cells were counted, resuspended in PBS and injected into NSG mice via tail vein. On day 6, mice were imaged for bioluminescent intensity (BLI) and sorted into groups based on their tumor size ensure that all groups had the same sized tumors. Human T cells were transduced with one of the following constructs as shown in the study design in Table 33:
Thus, anti-tumor efficacy (Table 34) appears to correlate with plasma IL12 and IFNgamma levels.

CD19+ Nalm6 tumors = test: Nalm6-Luc tumor burden by BLI, mean total flux, NSG mice given CAR-T cells (Example 9; Table 28); type: in vivo
Description: as §1, with “The study was designed to determine if membrane bound IL12 (mbIL12) expressed on CAR-T cells via a CD8 TM domain and CD8 Hinge Region promotes CAR T cell expansion in cis, promotes non-CAR-T cell expansion in trans, and/or increases in vivo CAR T cell efficacy against CD19+ Nalm6 tumors. To” for “To”, “ensuring” for “ensure”, “27:” for “33:”
Next, holding total CAR+ T cell dose constant at either 300,000 or 1 million cells per animal, transduced T cells were intravenously infused into mice on day 7. Tumors were monitored in mice using BLI and the mean of the Total Flux (photons/second) was calculated for each group as an indicator of tumor burden (Table 28). In order to track the trans effect of IL12 expressing CART cells on T cells that lack expression of IL12, 5 million GFP+ T cells (negative for IL12) were co-infused with the IL12-expressing CAR+ T cells, and peripheral blood draws taken over time to evaluate the effect of IL12 on phenotypic changes in GFP+ T cells by flow cytometry analysis.

B1: OT-001356: CD19 CAR; stop; IRES; secreted IL12 (p40 23-328; (G4S)3; p35 57-253); nucleic acid SEQ ID NO: 482 (protein)
chain: IWELKKDVYVVELDWYPDAPGEMVVLTCDTPEEDGITWTLDQSSEVLGSGKTLTIQVKEFGDAGQYTCHKGGEVLSHSLLLLHKKEDGIWSTDILKDQKEPKNKTFLRCEAKNYSGRFTCWWLTTISTDLTFSVKSSRGSSDPQGVTCGAATLSAERVRGDNKEYEYSVECQEDSACPAAEESLPIEVMVDAVHKLKYENYTSSFFIRDIIKPDPPKNLQLKPLKNSRQVEVSWEYPDTWSTPHSYFSLTFCVQVQGKSKREKKDRVFTDKTSATVICRKNASISVRAQDRYYSSSWSEWASVPCSGGGGSGGGGSGGGGSRNLPVATPDPGMFPCLHHSQNLLRAVSNMLQKARQTLEFYPCTSEEIDHEDITKDKTSTVEACLPLELTKNESCLNSRETSFITNGSCLASRKTSFMMALCLSSIYEDLKMYQVEFKTMNAKLLMDPKRQIFLDQNMLAVIDELMQALNFNSETVPQKSSLEEPDFYKTKIKLCILLHAFRIRAVTIDRVMSYLNASGS
Day 14 Plasma IFNgamma Levels [1]: 13,344 pg/mL | Day 14 Plasma IL10 Levels [1]: 6.9 pg/mL | Day 14 Plasma IL 12 Levels [1]: 2,434 pg/mL | Mean Total Flux (Nalm-6 Tumor Burdon) (CD19+ Nalm6 tumors; day 6 post tumor implant, day −1 post T cell transfer (before infusion), cell dose not given): 1069500 photons/second | Mean Total Flux (Nalm-6 Tumor Burdon) (CD19+ Nalm6 tumors; day 13 post tumor implant, day 6 post T cell transfer): 17363750 photons/second | Mean Total Flux (Nalm-6 Tumor Burdon) (CD19+ Nalm6 tumors; day 20 post tumor implant, day 13 post T cell transfer): 555500 photons/second | Mean Total Flux (Nalm-6 Tumor Burdon) (CD19+ Nalm6 tumors; day 27 post tumor implant, day 20 post T cell transfer): 769125 photons/second | Mean Total Flux (Nalm-6 Tumor Burdon) (CD19+ Nalm6 tumors; day 34 post tumor implant, day 27 post T cell transfer): 743125 photons/second | Mean Total Flux (Nalm-6 Tumor Burdon) (CD19+ Nalm6 tumors; day 41 post tumor implant, day 34 post T cell transfer): 716750 photons/second
